Data published in article PMC9135616 (Biophysics and Physicobiology, 2022).

Tests used:
Experiment in all cases: SEC
KaiC^S157P = target: T1, KaiC^S157P (Synechococcus elongatus PCC 7942, UniProt Q79PF4 1-519, S157P)
T1 sequence: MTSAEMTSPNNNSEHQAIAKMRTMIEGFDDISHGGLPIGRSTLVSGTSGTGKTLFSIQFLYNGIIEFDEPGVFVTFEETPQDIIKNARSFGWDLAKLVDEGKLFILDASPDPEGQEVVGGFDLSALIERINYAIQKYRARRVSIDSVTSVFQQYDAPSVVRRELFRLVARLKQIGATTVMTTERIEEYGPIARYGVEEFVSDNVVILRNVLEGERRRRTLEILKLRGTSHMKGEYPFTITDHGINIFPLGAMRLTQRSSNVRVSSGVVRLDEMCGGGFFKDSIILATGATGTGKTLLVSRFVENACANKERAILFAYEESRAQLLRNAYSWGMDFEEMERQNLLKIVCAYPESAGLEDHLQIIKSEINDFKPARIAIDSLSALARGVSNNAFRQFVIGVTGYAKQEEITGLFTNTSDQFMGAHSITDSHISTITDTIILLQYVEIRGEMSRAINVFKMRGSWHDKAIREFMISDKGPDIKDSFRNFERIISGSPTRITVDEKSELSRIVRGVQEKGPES

wild-type KaiC = target: T2, wild-type KaiC (Synechococcus elongatus PCC 7942, UniProt Q79PF4 1-519)
T2 sequence: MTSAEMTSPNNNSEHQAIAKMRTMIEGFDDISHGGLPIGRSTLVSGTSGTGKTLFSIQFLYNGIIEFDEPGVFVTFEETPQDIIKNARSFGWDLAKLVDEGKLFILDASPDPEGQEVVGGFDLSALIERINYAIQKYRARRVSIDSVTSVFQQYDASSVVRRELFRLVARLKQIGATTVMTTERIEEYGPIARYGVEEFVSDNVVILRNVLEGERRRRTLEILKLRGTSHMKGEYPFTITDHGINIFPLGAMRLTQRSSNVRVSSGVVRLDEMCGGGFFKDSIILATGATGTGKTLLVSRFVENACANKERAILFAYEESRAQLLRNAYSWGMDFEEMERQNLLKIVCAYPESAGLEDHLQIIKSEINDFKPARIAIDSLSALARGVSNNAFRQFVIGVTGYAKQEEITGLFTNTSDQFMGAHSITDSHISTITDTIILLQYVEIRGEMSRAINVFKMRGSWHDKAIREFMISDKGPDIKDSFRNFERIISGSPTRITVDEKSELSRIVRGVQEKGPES

[1] = target: T3, KaiC-pSpT-mimicking S431D/T432E KaiC mutant (Synechococcus elongatus PCC 7942, UniProt Q79PF4 1-519, S431D | T432E)
T3 sequence: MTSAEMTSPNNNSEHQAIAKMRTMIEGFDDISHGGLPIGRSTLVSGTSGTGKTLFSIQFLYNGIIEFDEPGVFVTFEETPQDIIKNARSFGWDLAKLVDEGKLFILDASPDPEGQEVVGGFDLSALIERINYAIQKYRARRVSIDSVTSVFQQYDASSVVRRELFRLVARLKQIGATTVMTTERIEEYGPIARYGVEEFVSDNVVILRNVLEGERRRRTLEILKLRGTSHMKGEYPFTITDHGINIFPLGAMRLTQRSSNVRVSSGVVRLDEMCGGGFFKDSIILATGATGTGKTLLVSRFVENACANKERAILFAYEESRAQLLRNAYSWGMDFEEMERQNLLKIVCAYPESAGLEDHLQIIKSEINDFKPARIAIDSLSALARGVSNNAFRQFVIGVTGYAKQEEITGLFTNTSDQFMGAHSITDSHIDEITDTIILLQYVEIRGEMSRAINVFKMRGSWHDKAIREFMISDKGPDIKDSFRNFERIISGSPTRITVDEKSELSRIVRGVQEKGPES

KaiC^F470Y = target: T4, KaiC^F470Y (Synechococcus elongatus PCC 7942, UniProt Q79PF4 1-519, F470Y)
T4 sequence: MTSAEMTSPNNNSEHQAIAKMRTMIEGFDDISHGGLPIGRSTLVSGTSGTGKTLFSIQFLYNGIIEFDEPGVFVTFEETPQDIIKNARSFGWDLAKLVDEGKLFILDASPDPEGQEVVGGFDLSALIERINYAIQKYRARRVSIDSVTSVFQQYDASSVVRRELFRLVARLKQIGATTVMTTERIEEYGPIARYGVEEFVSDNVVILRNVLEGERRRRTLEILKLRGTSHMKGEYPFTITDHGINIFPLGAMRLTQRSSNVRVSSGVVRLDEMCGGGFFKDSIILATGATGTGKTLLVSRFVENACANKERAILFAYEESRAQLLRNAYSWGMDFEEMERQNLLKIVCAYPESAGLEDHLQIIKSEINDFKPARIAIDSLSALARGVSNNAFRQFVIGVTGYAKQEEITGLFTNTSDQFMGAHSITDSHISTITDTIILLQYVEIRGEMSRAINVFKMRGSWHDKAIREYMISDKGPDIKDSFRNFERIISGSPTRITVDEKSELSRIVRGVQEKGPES

KaiC^C306A = target: T5, KaiC^C306A (Synechococcus elongatus PCC 7942, UniProt Q79PF4 1-519, C306A)
T5 sequence: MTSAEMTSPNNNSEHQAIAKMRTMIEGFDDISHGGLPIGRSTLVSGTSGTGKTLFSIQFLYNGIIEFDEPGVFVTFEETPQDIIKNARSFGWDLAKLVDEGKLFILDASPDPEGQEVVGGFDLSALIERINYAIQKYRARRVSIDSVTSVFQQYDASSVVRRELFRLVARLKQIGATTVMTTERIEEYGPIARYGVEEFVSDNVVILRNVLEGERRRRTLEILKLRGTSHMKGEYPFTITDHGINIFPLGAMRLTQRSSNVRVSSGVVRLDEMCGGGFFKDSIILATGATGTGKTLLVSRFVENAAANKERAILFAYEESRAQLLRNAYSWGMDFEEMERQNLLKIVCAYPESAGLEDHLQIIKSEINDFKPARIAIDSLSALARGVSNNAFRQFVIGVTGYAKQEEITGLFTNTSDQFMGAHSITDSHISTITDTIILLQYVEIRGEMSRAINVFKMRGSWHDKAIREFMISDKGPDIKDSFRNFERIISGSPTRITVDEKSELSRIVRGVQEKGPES

binding result (KaiC^S157P): binds
koff (wild-type KaiC): 2.39e-05 s⁻¹
koff [1]: 1.56e-06 s⁻¹
binding result (KaiC^F470Y): binds
binding result (KaiC^C306A): binds
B1: KaiB (natural protein)
chain: MSPRKTYILKLYVAGNTPNSVRALKTLKNILEVEFQGVYALKVIDVLKNPQLAEEDKILATPTLAKVLPLPVRRIIGDLSDREKVLIGLDLLYGELQDSDDF
